B1: TEKT4 (parent)
chain: SEVEELNMSLTALREKLLEAEQSL
B2: ZNF8 (parent)
chain: SLGRHKRTHTGEKPYTCSVCGKSF
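Further: lentivirally expressed fusions sorted by FACS into six bins by GFP to DsRed ratio, PSI derived from sequencing read proportions per bin multiplied by bin number.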

The variants in one data set derive from B1. In words: protein stability index of a GFP-peptide fusion (GPS, HEK-293T) (PSI 1-6); higher = more stable. To be noted: c terminus: a fixed tail appended.
Consider SEVEELNMSLTALREKLLEAEQML [S23M], for which the protein stability index was determined as 2.74. Still for that read-out and setting: under SEVEELNMSLTALREELLEAEQSL [K16E] stands 3.19; under SEVEELNMSLTALREGLLEAEQSL [K16G], 3.58. Turning to SEVEELNMSLTALRELLLEAEQSL [K16L], the protein stability index was 2.85. Still for that read-out and setting: under SEVEELNMSLTALRECLLEAEQSL [K16C] stands 3.24. As for SEVEELNMSLTALREKLNEAEQSL [L18N], the protein stability index stood at 4.11. Consider SEVEELNMSLTALREKLSEAEQSL [L18S], for which the protein stability index turned out to be 4.65. Same read-out and setting: under SEVEHLNMSLTALREKLLEAEQSL [E5H] stands 2.72; under SEVETLNMSLTALREKLLEAEQSL [E5T], 2.54. The same measure, in the same setting: under SEVEPLNMSLTALREKLLEAEQSL [E5P] stands 2.63; under SEVEELNMSLTALREKLLEAHQSL [E21H], 3.06; under SEVEELNMSLTALREKLLEAMQSL [E21M], 3.16. Turning to SEVEELNMSLTALREKLLEAWQSL [E21W], the protein stability index was 2.36. Still for that read-out and setting: under SEVEELNMSLTALREKLLEAAQSL [E21A] stands 2.8; under SEVEELNMLLTALREKLLEAEQSL [S9L], 2.3; under SPVEELNMSLTALREKLLEAEQSL [E2P], 3.14. As to SWVEELNMSLTALREKLLEAEQSL [E2W], the protein stability index turned out to be 1.98. Same read-out and setting: under SVVEELNMSLTALREKLLEAEQSL [E2V] stands 2.45; under SEVEELNMSHTALREKLLEAEQSL [L10H], 3.26; under SEVEELAMSLTALREKLLEAEQSL [N7A], 2.35. Regarding SEVEELKMSLTALREKLLEAEQSL [N7K], the protein stability index was 2.84. Consider SEVEELGMSLTALREKLLEAEQSL [N7G], for which the protein stability index was 2.94.

SEVEELVMSLTALREKLLEAEQSL [N7V]: the protein stability index came to 1.95. The same measure, in the same setting: under SEVEELLMSLTALREKLLEAEQSL [N7L] stands 2.31. Same read-out and setting: under SEVEELSMSLTALREKLLEAEQSL [N7S] stands 2.97. The same measure, in the same setting: under SEVEELNMSLTALREKLLEAEQSQ [L24Q] stands 4.78. Take SEVEELNMSLTALREKLLEAEQSH [L24H]: the protein stability index was determined as 4.41. Consider SEVEELNMSLTALREKLLEAEQSV [L24V], for which the protein stability index amounted to 2.25. With SEVEELNMSLTALREKLLEAEQSE [L24E], the protein stability index was found to be 4.69.

On to SEVEELNMSLTALREKLLEAEQSW [L24W], for which the protein stability index came to 3.74.

For SEVEELNMSLTALREKLLEAEQST [L24T], the protein stability index amounted to 4.97. Turning to SEVEELNMSLTALREKLLGAEQSL [E19G], the protein stability index worked out at 3.95. In the case of SEVEELNMSLTALREKLLYAEQSL [E19Y], the protein stability index came to 2.62.

On to SEVEELNMSLTALREKLLDAEQSL [E19D], for which the protein stability index was 3.49. The same measure, in the same setting: under SEVEELNYSLTALREKLLEAEQSL [M8Y] stands 2.37; under SEVEELNWSLTALREKLLEAEQSL [M8W], 2.28; under SEVEELNQSLTALREKLLEAEQSL [M8Q], 2.56.

As to SEVEELNISLTALREKLLEAEQSL [M8I], the protein stability index worked out at 3.17. Still for that read-out and setting: under SEVEELNNSLTALREKLLEAEQSL [M8N] stands 2.41; under SEVEELNKSLTALREKLLEAEQSL [M8K], 2.77.

Consider SEFEELNMSLTALREKLLEAEQSL [V3F], for which the protein stability index came to 2.83. On the same count and under the same terms, under SEQEELNMSLTALREKLLEAEQSL [V3Q] stands 3.4.

As to SEVEELNMSLTALREKLLEDEQSL [A20D], the protein stability index came to 4.72. Regarding SEVEELNMSLTALREKLLEVEQSL [A20V], the protein stability index worked out at 4.41.

For SEVEELNMSLTALREKLLELEQSL [A20L], the protein stability index amounted to 3.98. For SEVEELNMSLTALREKLLEWEQSL [A20W], the protein stability index amounted to 2.95. On the same count and under the same terms, under TEVEELNMSLTALREKLLEAEQSL [S1T] stands 2.6; under PEVEELNMSLTALREKLLEAEQSL [S1P], 2.94; under NEVEELNMSLTALREKLLEAEQSL [S1N], 2.2. The same measure, in the same setting: under SEVEELNMSLEALREKLLEAEQSL [T11E] stands 4.1. Take SEVEELNMSLAALREKLLEAEQSL [T11A]: the protein stability index is 3.49.

As for SEVEELNMSLDALREKLLEAEQSL [T11D], the protein stability index was determined as 4.13. Same read-out and setting: under SEVEELNMSLVALREKLLEAEQSL [T11V] stands 2.36; under SEVEELNMSLTALREKLLEAECSL [Q22C], 2.37; under SEVEELNMSLTALREKLLEAEGSL [Q22G], 3.6. Take SEVEELNMSLTALREKHLEAEQSL [L17H]: the protein stability index was found to be 5.01.

As to SEVEELNMSLTALREKYLEAEQSL [L17Y], the protein stability index turned out to be 4.05.

With SEVEELNMSLTALREKMLEAEQSL [L17M], the protein stability index amounted to 2.51. Consider SEVEELNMSLTALREKCLEAEQSL [L17C], for which the protein stability index came out at 4.21. Consider SEVEELNMSLTALREKQLEAEQSL [L17Q], for which the protein stability index was 4.98. On to SEVEELNMSLTALRKKLLEAEQSL [E15K], for which the protein stability index was found to be 3.38. Same read-out and setting: under SEVEELNMSLTALRLKLLEAEQSL [E15L] stands 2.1.

Take SEVEELNMSLTALRYKLLEAEQSL [E15Y]: the protein stability index was 2.15. For SEVEELNMSLTALRRKLLEAEQSL [E15R], the protein stability index amounted to 3.11. On the same count and under the same terms, under SEVEELNMSLTYLREKLLEAEQSL [A12Y] stands 2.47; under SEVEELNMSLTLLREKLLEAEQSL [A12L], 2.27. In the case of SEVEELNMSLTELREKLLEAEQSL [A12E], the protein stability index worked out at 2.38. The same measure, in the same setting: under SEVEELNMSLTCLREKLLEAEQSL [A12C] stands 2.15.

In the case of SEVEELNMSLTALFEKLLEAEQSL [R14F], the protein stability index is 2.42. For the variant SEVEELNMSLTALKEKLLEAEQSL [R14K], the protein stability index came out at 3.94.

As for SEVEELNMSLTALTEKLLEAEQSL [R14T], the protein stability index is 3.62.

Take SEVEELNMSLTALAEKLLEAEQSL [R14A]: the protein stability index came out at 3.48. Consider SEVEELNMSLTALCEKLLEAEQSL [R14C], for which the protein stability index stood at 3.37.

On to SEVEELNMSLTALWEKLLEAEQSL [R14W], for which the protein stability index was 2.58. For the variant SEVIELNMSLTALREKLLEAEQSL [E4I], the protein stability index stood at 2.59. Consider SEVRELNMSLTALREKLLEAEQSL [E4R], for which the protein stability index was 2.02. As to SEVEELNMSLTACREKLLEAEQSL [L13C], the protein stability index stood at 4.68. For the variant SEVEELNMSLTAGREKLLEAEQSL [L13G], the protein stability index turned out to be 5.15. In the case of SEVEEDNMSLTALREKLLEAEQSL [L6D], the protein stability index stood at 4.41. On the same count and under the same terms, under SEVEEHNMSLTALREKLLEAEQSL [L6H] stands 3.31.

The next data set covers variants of B2. The data set is described as above. To be noted: c terminus: a fixed tail appended.
Take SLGRHKRTHTGEKPYTCSVCGKSR [F24R]: the protein stability index worked out at 2.92. As to SLGRHKRTHTGEKPYTCSVCGKSQ [F24Q], the protein stability index came out at 2.69. Turning to SLGRHKRTHTGEKPYTCSVCGKSL [F24L], the protein stability index came out at 3.02. Still for that read-out and setting: under SLGRHKRTHTGEKPYTCSVCGKSI [F24I] stands 2.92. On to SLGRHKRTHTGEKPYTCSVCGKST [F24T], for which the protein stability index turned out to be 2.24. On the same count and under the same terms, under SLGRHKRTHTGEKPYTCSVCGKSK [F24K] stands 3.62. The same measure, in the same setting: under SLGRHKRTHTGEKPYTCSVCGKSS [F24S] stands 3.44; under SLGRHKRTHTGEKPYTCSVCGKSN [F24N], 3.27. For SLGRHKRTHTGEKPYTCSVCGKSH [F24H], the protein stability index is 4.04. On the same count and under the same terms, under SLGRHKRTHTGEKPYTCSVCGKSM [F24M] stands 2.85. Still for that read-out and setting: under SLGRHKRTHTGEKPYTCSVCGKSV [F24V] stands 3.27; under SLGRHKRTHTGEKPYTCSVCGKSP [F24P], 3.5.

Turning to SLGRHKRTHTGEKPYTCSVCGKSW [F24W], the protein stability index was determined as 2.93. Consider SLGRHKRTHTGEKPYTCSVCGKSY [F24Y], for which the protein stability index turned out to be 2.45.
